This note sets out measurements from US20090105152A1.

To fix the notation:
B1: des(1)-Ac-[D-Tyr2,Hyp3,Thr5,Phe(4Cl)6,AzaGly7,Arg(Me)9,Trp10]MS10 (peptide)
peptide: Ac-[dY][Hyp]NT[Phe(4-Cl)][azaGly]L[Arg(Me)]W-NH2
SMILES: CNC(=N)NCCC[C@H](NC(=O)[C@H](CC(C)C)NC(=O)NNC(=O)[C@H](Cc1ccc(Cl)cc1)NC(=O)[C@@H](NC(=O)[C@H](CC(N)=O)NC(=O)[C@@H]1C[C@@H](O)CN1C(=O)[C@@H](Cc1ccc(O)cc1)NC(C)=O)[C@@H](C)O)C(=O)N[C@@H](Cc1c[nH]c2ccccc12)C(N)=O
B2: des(1)-Glycoloyl-[D-Tyr2,Hyp3,Thr5,AzaGly7,Arg(Me)9,Trp10]MS10 (peptide)
peptide: Glycolyl-[dY][Hyp]NTF[azaGly]L[Arg(Me)]W-NH2
SMILES: CNC(=N)NCCC[C@H](NC(=O)[C@H](CC(C)C)NC(=O)NNC(=O)[C@H](Cc1ccccc1)NC(=O)[C@@H](NC(=O)[C@H](CC(N)=O)NC(=O)[C@@H]1C[C@@H](O)CN1C(=O)[C@@H](Cc1ccc(O)cc1)NC(=O)CO)[C@@H](C)O)C(=O)N[C@@H](Cc1c[nH]c2ccccc12)C(N)=O
B3: des(1)-Ac-[D-Tyr2,Hyp3,Thr5,Phe(3F)6,AzaGly7,Arg(Me)9,Trp10]MS10 (peptide)
peptide: Ac-[dY][Hyp]NT[Phe(3-F)][azaGly]L[Arg(Me)]W-NH2
SMILES: CNC(=N)NCCC[C@H](NC(=O)[C@H](CC(C)C)NC(=O)NNC(=O)[C@H](Cc1cccc(F)c1)NC(=O)[C@@H](NC(=O)[C@H](CC(N)=O)NC(=O)[C@@H]1C[C@@H](O)CN1C(=O)[C@@H](Cc1ccc(O)cc1)NC(C)=O)[C@@H](C)O)C(=O)N[C@@H](Cc1c[nH]c2ccccc12)C(N)=O
B4: des(1)-Ac-[D-Tyr2,Thr3,Thr5,AzaGly7,Arg(Me)9,Trp10]MS10 (peptide)
peptide: Ac-[dY]TNTF[azaGly]L[Arg(Me)]W-NH2
SMILES: CNC(=N)NCCC[C@H](NC(=O)[C@H](CC(C)C)NC(=O)NNC(=O)[C@H](Cc1ccccc1)NC(=O)[C@@H](NC(=O)[C@H](CC(N)=O)NC(=O)[C@@H](NC(=O)[C@@H](Cc1ccc(O)cc1)NC(C)=O)[C@@H](C)O)[C@@H](C)O)C(=O)N[C@@H](Cc1c[nH]c2ccccc12)C(N)=O
B5: des(1-2)-Ac-[D-Tyr3,Thr5,AzaGly7,Arg(Me)9,Trp10]MS10 (peptide)
peptide: Ac-[dY]NTF[azaGly]L[Arg(Me)]W-NH2
SMILES: CNC(=N)NCCC[C@H](NC(=O)[C@H](CC(C)C)NC(=O)NNC(=O)[C@H](Cc1ccccc1)NC(=O)[C@@H](NC(=O)[C@H](CC(N)=O)NC(=O)[C@@H](Cc1ccc(O)cc1)NC(C)=O)[C@@H](C)O)C(=O)N[C@@H](Cc1c[nH]c2ccccc12)C(N)=O
B6: des(1)-Ac-[D-Tyr2,Trp3,Thr5,Phe(4Cl)6,AzaGly7,Arg(Me)9,Trp10]MS10 (peptide)
peptide: Ac-[dY]WNT[Phe(4-Cl)][azaGly]L[Arg(Me)]W-NH2
SMILES: CNC(=N)NCCC[C@H](NC(=O)[C@H](CC(C)C)NC(=O)NNC(=O)[C@H](Cc1ccc(Cl)cc1)NC(=O)[C@@H](NC(=O)[C@H](CC(N)=O)NC(=O)[C@H](Cc1c[nH]c2ccccc12)NC(=O)[C@@H](Cc1ccc(O)cc1)NC(C)=O)[C@@H](C)O)C(=O)N[C@@H](Cc1c[nH]c2ccccc12)C(N)=O
B7: des(1)-Ac-[D-Tyr2,His(3Me)3,Thr5,AzaGly7,Arg(Me)9,Trp10]MS10 (peptide)
peptide: Ac-[dY][His(3Me)]NTF[azaGly]L[Arg(Me)]W-NH2
B8: des(1)-Ac-[D-Tyr2,Orn3,Thr5,AzaGly7,Arg(Me)9,Trp10]MS10 (peptide)
peptide: Ac-[dY][Orn]NTF[azaGly]L[Arg(Me)]W-NH2
SMILES: CNC(=N)NCCC[C@H](NC(=O)[C@H](CC(C)C)NC(=O)NNC(=O)[C@H](Cc1ccccc1)NC(=O)[C@@H](NC(=O)[C@H](CC(N)=O)NC(=O)[C@H](CCCN)NC(=O)[C@@H](Cc1ccc(O)cc1)NC(C)=O)[C@@H](C)O)C(=O)N[C@@H](Cc1c[nH]c2ccccc12)C(N)=O
B9: des(1)-Ac-[D-Tyr2,Tyr(PO3H2)3,Thr5,AzaGly7,Arg(Me)9,Trp10]MS10 (peptide)
peptide: Ac-[dY][pY]NTF[azaGly]L[Arg(Me)]W-NH2
SMILES: CNC(=N)NCCC[C@H](NC(=O)[C@H](CC(C)C)NC(=O)NNC(=O)[C@H](Cc1ccccc1)NC(=O)[C@@H](NC(=O)[C@H](CC(N)=O)NC(=O)[C@H](Cc1ccc(OP(=O)(O)O)cc1)NC(=O)[C@@H](Cc1ccc(O)cc1)NC(C)=O)[C@@H](C)O)C(=O)N[C@@H](Cc1c[nH]c2ccccc12)C(N)=O
B10: des(1)-Ac-[D-Tyr2,Trp3,Thr5,Phe(3F)6,AzaGly7,Arg(Me)9,Trp10]MS10 (peptide)
peptide: Ac-[dY]WNT[Phe(3-F)][azaGly]L[Arg(Me)]W-NH2
SMILES: CNC(=N)NCCC[C@H](NC(=O)[C@H](CC(C)C)NC(=O)NNC(=O)[C@H](Cc1cccc(F)c1)NC(=O)[C@@H](NC(=O)[C@H](CC(N)=O)NC(=O)[C@H](Cc1c[nH]c2ccccc12)NC(=O)[C@@H](Cc1ccc(O)cc1)NC(C)=O)[C@@H](C)O)C(=O)N[C@@H](Cc1c[nH]c2ccccc12)C(N)=O
B11: des(1)-Ac-[D-Tyr2,Aib3,Thr5,Phe(4Cl)6,AzaGly7,Arg(Me)9,Trp10]MS10 (peptide)
peptide: Ac-[dY][Aib]NT[Phe(4-Cl)][azaGly]L[Arg(Me)]W-NH2
SMILES: CNC(=N)NCCC[C@H](NC(=O)[C@H](CC(C)C)NC(=O)NNC(=O)[C@H](Cc1ccc(Cl)cc1)NC(=O)[C@@H](NC(=O)[C@H](CC(N)=O)NC(=O)C(C)(C)NC(=O)[C@@H](Cc1ccc(O)cc1)NC(C)=O)[C@@H](C)O)C(=O)N[C@@H](Cc1c[nH]c2ccccc12)C(N)=O
B12: des(1)-Ac-[D-Tyr2,Gly3,Thr5,Phe(4Cl)6,AzaGly7,Arg(Me)9,Trp10]MS10 (peptide)
peptide: Ac-[dY]GNT[Phe(4-Cl)][azaGly]L[Arg(Me)]W-NH2
SMILES: CNC(=N)NCCC[C@H](NC(=O)[C@H](CC(C)C)NC(=O)NNC(=O)[C@H](Cc1ccc(Cl)cc1)NC(=O)[C@@H](NC(=O)[C@H](CC(N)=O)NC(=O)CNC(=O)[C@@H](Cc1ccc(O)cc1)NC(C)=O)[C@@H](C)O)C(=O)N[C@@H](Cc1c[nH]c2ccccc12)C(N)=O
B13: des(1-2)-Ac-[Acp3,Thr5,AzaGly7,Arg(Me)9,Trp10]MS10 (peptide)
peptide: Ac-[Ahx]NTF[azaGly]L[Arg(Me)]W-NH2
SMILES: CNC(=N)NCCC[C@H](NC(=O)[C@H](CC(C)C)NC(=O)NNC(=O)[C@H](Cc1ccccc1)NC(=O)[C@@H](NC(=O)[C@H](CC(N)=O)NC(=O)CCCCCNC(C)=O)[C@@H](C)O)C(=O)N[C@@H](Cc1c[nH]c2ccccc12)C(N)=O
B14: des(1)-Ac-[D-Tyr2,DL-Ala(Pip)3,Thr5,AzaGly7,Arg(Me)9,Trp10]MS10 (peptide)
peptide: Ac-[dY][Ala(Pip)]NTF[azaGly]L[Arg(Me)]W-NH2
modifications: also: position 2 DL, both configurations

Square brackets hold non-standard residues; d marks the D form. * marks the point of attachment. pY = N[C@@H](Cc1ccc(OP(=O)(O)O)cc1)C(=O)O; Phe(4-Cl) = N[C@@H](Cc1ccc(Cl)cc1)C(=O)O; Phe(3-F) = N[C@@H](Cc1cccc(F)c1)C(=O)O; Ala(Pip) = (4-piperidin-1-yl)alanine; Arg(Me) = CNC(=N)NCCC[C@H](N)C(=O)O; Hyp = O=C(O)[C@@H]1C[C@@H](O)CN1; His(3Me) = 3-methylhistidine; Orn = NCCC[C@H](N)C(=O)O; Aib = CC(C)(N)C(=O)O; Glycolyl = O=C(CO)*; Ahx = NCCCCCC(=O)O; azaGly = NNC(=O)O

This experiment deals with human OT7T175 (metastin receptor) (human) (UniProt Q969F8). Nature of the experiment: cell-based or functional assay.
Chain of human OT7T175 (metastin receptor) (human) (Q969F8 whole entry L364H): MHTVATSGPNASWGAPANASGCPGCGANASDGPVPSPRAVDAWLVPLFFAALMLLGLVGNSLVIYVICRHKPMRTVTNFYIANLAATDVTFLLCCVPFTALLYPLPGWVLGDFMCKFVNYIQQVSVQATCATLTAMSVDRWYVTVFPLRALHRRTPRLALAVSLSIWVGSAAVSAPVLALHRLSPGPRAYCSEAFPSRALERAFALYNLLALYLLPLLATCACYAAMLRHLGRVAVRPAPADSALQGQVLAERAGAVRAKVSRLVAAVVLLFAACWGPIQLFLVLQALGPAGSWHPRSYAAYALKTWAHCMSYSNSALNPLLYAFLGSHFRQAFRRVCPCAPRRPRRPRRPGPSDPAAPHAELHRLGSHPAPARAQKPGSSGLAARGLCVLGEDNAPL
As for B1, the intracellular Ca ion level-increasing activity [specific activity to Metastin (1-54)] (relative to Metastin (1-54)) came out at 1.5. In the case of B2, the intracellular Ca ion level-increasing activity [specific activity to Metastin (1-54)] (relative to Metastin (1-54)) worked out at 1.5. Molecule B3 came in with an intracellular Ca ion level-increasing activity [specific activity to Metastin (1-54)] (relative to Metastin (1-54)) of 2.6.

On to B4, for which the intracellular Ca ion level-increasing activity [specific activity to Metastin (1-54)] (relative to Metastin (1-54)) is 1.3. The same measure for B5: 1.8. In turn, B6 registered an intracellular Ca ion level-increasing activity [specific activity to Metastin (1-54)] (relative to Metastin (1-54)) of 0.6. With B7 the figure was 1.1.

B8 displayed an intracellular Ca ion level-increasing activity [specific activity to Metastin (1-54)] (relative to Metastin (1-54)) of 1.9.

With B9, the intracellular Ca ion level-increasing activity [specific activity to Metastin (1-54)] (relative to Metastin (1-54)) came out at 1.3. With B10 the figure was 0.2; with B11, 2.6; with B12, 1.5. Turning to B13, the intracellular Ca ion level-increasing activity [specific activity to Metastin (1-54)] (relative to Metastin (1-54)) turned out to be 3.7. For the molecule B14, the intracellular Ca ion level-increasing activity [specific activity to Metastin (1-54)] (relative to Metastin (1-54)) was 2.
